Among the data in patent US20090186824A1 are % DPPIV Activity (Saline) (% relative to saline control) values, retold here.

Where no end group is shown, it is not given here.

The target of the assay is dipeptidyl peptidase IV (DPPIV) in plasma of ICR mouse blood (mouse), P28843. Briefly: cell-based or functional assay.
Chain of dipeptidyl peptidase IV (DPPIV) in plasma of ICR mouse blood (mouse), P28843 (P28843 37-760 limits assumed): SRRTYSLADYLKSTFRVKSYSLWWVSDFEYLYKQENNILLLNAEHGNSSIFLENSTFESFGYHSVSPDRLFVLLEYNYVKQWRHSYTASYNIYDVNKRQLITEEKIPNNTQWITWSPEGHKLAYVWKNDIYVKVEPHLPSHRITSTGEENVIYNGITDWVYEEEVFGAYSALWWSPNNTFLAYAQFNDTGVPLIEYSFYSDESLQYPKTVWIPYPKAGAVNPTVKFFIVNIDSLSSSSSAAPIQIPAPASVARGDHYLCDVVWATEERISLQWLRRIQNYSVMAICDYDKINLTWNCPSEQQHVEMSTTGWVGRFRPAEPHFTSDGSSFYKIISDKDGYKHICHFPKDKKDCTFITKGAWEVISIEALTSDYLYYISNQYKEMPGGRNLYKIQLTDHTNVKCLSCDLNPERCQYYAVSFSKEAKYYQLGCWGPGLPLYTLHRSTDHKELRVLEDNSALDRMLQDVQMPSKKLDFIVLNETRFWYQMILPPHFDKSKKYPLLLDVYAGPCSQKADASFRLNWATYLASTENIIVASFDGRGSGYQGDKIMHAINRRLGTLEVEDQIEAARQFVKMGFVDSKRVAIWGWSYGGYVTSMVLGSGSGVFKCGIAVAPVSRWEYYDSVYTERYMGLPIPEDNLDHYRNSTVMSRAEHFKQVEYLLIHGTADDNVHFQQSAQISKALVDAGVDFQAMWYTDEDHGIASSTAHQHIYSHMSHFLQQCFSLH

As for RIVPA-OH [SEQ ID NO 10], the % DPPIV Activity (Saline) (% relative to saline control) turned out to be 51.
